# Source: patent US12496346B2, “Phospholipid-flavagline conjugates and methods of using the same for targeted cancer therapy” (Cellectar Biosciences, Inc., priority 2019, dated 2025)
# Key:
# [1] = In vivo tolerability, body weight changes; design: species or system C57BL/6 mice; conditions: intravenous, repeat dosing, 0.5, 1.0 or 2.0 mg/kg
# Method: To determine whether CLR 1899 is tolerated in vivo, the compound was administered intravenously to healthy C57BL/6 mice at dose levels of 0.5 mg/kg, 1.0 mg/kg, or 2.0 mg/kg, and body weight changes were observed (FIG. 12). […] The in vivo efficacy of CLR 1899 was studied in MCF-7 xenograft model (FIG. 13, 10 mice per dose group). Reduction in tumor volume was recorded.
# [2] = In vitro cytotoxicity of CLR 1899; type: cell-based; conditions: human, NHDF (normal dermal fibroblasts); read-out: Minimum % viability
# Method: CLR 1899 was administered to cell lines A375 (human malignant melanoma), A549 (human lung adenocarcinoma), HCT 116 (human colon cancer), and NHDF (normal human dermal fibroblasts).
compound,measurement,setting,value
COC(=O)[C@H]1[C@@H](O)[C@@]2(O)c3c(OC)cc(OCCCCNC(=O)CNC(=O)CNC(=O)CNC(=O)c4ccc(CCCCCCCCCCCCCCCCCCOP(=O)([O-])OCC[N+](C)(C)C)cc4)cc3O[C@@]2(c2ccc(OC)cc2)[C@@H]1c1ccccc1 [CLR 1899],toxicity or adverse events as measured by changes in weight,[1],no toxicity or adverse events
same,viability,[2],41.7%
